Test results as given in patent US8394380B2, “Compositions and methods for alzheimer's disease” (Primex Clinical Laboratories, Inc., priority 2004, dated 2013).
Where two headings read alike, the source gives them in different places. Positions of bridges follow the written chain, without caps; N, C: chain ends. No end group written: not given here.

Key:
[1] = system: primary cultures of hippocampal neurons and mixed cortical neurons; details: cited from earlier work
[2] = system: rat cultured hippocampal neurons
Experimental: (§2) Primary cultures of hippocampal neurons were prepared from 17-18 day gestational Wistar rat embryos as described previously (Brewer et al., 1993) with some modifications (Massieu et al., 2003). Briefly, after dissection, 10-12 hippocampi were chopped into 300-μm cubes, incubated in a 0.25% trypsin solution, and dispersed by trituration in a 0.08% DNAase and 0.52% soybean trypsin inhibitor containing solution. Cells were suspended in Neurobasal culture medium (GIBCO/Life technologies, Rockville Md., USA) (Brewer et al. 1993) supplemented with B27 (Minus AO GIBCO/life technologies, Rockville, Md., USA), 0.5 mM L-glutamine, 20 μg/ml gentamicin, and 0.2 mM glutamate, and plated at a density of 260-290×10^3/cm^2 in Costar 48-well plates (Cambridge, Mass., USA), precoated with poly-L-lysine (5 μg/ml). Cells were cultured for 6 days in vitro (DIV) at 37° C. in a humidified 5% CO2/95% air atmosphere. Glucose (5 mM) and cytosine arabinoside (10 μM) were added to cultures 4 days after plating.
(§3) The effect of individual treatments of the different peptides on cell viability was also tested. Aβ42 was pre-incubated at 37° C. during 48 h to promote its aggregation and increase neurotoxicity. Cell viability was assessed by the MTT (3-(4,5-dimethylthiazol-2-yl)-2,5-diphenyltetrazolium bromide) dye reduction assay (Mosmann, 1983) as previously described (Garcia and Massieu, 2001). The assay is based on the ability of living mitochondria to convert MTT into insoluble formazan by active dehydrogenases.
(§4) In brief, 72 h after exposure to Aβ42, cell cultures were incubated with MTT (150 μM) during a 1 h period at 37° C. in a 5% CO2/95% O2-containing atmosphere. The medium was aspirated, and the precipitated formazan was solubilized with 0.480 ml isopropanol. After solubilization, isopropanol was transferred to eppendorf tubes, centrifuged (18 000 rpm for 30 s) and the optical density in the supernatant measured at 570 nm in a spectrofluorometer (Beckman DU-640). Cell damage was expressed as percent reduction in mitochondrial activity relative to control cultures. Data were expressed as means±SE (standard error) of 4 independent experiments.

[3] = system: rat cultured hippocampal neurons; assay: Neuroprotection assay, Aβ42-induced neurotoxicity, MTT reduction
Experimental: as §2, §3, §4

Aβ42 [4] = biological target: T1, Aβ42 (Homo sapiens, UniProt P05067); assay: ELISA using CDR-based synthetic peptides: biotinylated Aβ42 added to peptide-coated plates; assay type: binding
Experimental: ELISA analysis was carried out using MaxiSorp microtiter plates coated overnight with synthetic peptide at a concentration of 10 μg/ml in carbonate buffer. After washing, plates were blocked with PBS/2% BSA for 1 h at 37° C. After incubation and a washing step, biotinylated Aβ42 was added to each well. Plates were again incubated for 1 h at 37° C., washed, and reacted with an avidin-peroxidase conjugate diluted 1:500 (Pharmingen, San Jose, Calif., USA) followed by the ABTS single solution (Zymed) as described above.

Aβ42 [5] = biological target: T1, Aβ42; assay: Competition ELISA: binding of biotinylated Aβ42 to immobilized cyclic C44; details: competitor pre-incubated with biotinylated Aβ42 overnight at 4° C., N44 linear
Experimental: For competition ELISA, cyclic C44 and linear N44 were diluted in PBS/1% BSA and incubated with biotinylated Aβ42 overnight at 4° C. prior to addition to plates coated with cyclic C44.

human Aβ42 (wild-type) = biological target: T2, human Aβ42 (wild-type) (Homo sapiens, UniProt P05067); assay: ELISA binding of phage-displayed scFv / serum to Aβ42-coated wells; details: control wild type phage M13
T2 construct: coated overnight with 2 μg/ml of wild-type Aβ42 (BACHEM Bioscience Inc); purchased BACHEM Bioscience Inc
Experimental: One week after the fourth immunization, mouse sera were tested in ELISA for the presence of specific anti-Aβ42 antibodies. Briefly, a 96-well plate (Nunc, Roskilde, Denmark) was coated with 1 μg/ml of Aβ42 in phosphate buffer (pH 7.8) overnight at 4° C. The plate was washed with phosphate buffer containing 0.1% Tween-20 (PBS-Tween) and blocked with PBS containing 2% bovine serum albumin (PBS-BSA). After washing, mouse sera diluted in PBS-BSA 1% was added, and the plate was incubated for 1 h at 37° C. The plate was washed and goat anti-mouse IgG conjugated with HRP (Zymed, San Francisco, Calif., USA) was added. After incubation for 1 h at 37° C., the plate was washed and 2,2′-azino-bis-(3-ethyl-benzothiazoline-6-sulphonic acid (ABTS) single solution (Zymed) was added. The OD reading at 405 was registered using Opsys MR Microplate Reader (DYNEX Technologies, Chantilly, Va., USA).
Fresh 2×YT without glucose but supplemented with ampicillin and kanamycin was added to each well, and plates were incubated overnight at 30° C. with shaking Microtiter plates (Nunc) were coated with Aβ and blocked as described above, supernatants from plates containing phage were added, and after incubation for 1 h at 37° C., plates were washed with PBS-Tween. […] The OD reading at 405 was registered using Opsys MR Microplate Reader (DYNEX Technologies). […]

[6] = biological target: T3, Flemish (A21G) mutant Aβ42 (Homo sapiens, UniProt P05067, A692G); assay: ELISA binding of phage-displayed scFv to Flemish mutant Aβ42; details: control wild type phage M13
T3 construct: mutant Aβ42 (SynPep Corp., CA, USA); purchased SynPep Corp
Experimental: (§1) Microtiter plates were coated with Aβ42 and blocked as described above, 10^10 of each phage clone were added, and after incubation for 1 h at 37° C., plates were washed with PBS/Tween. An anti-M13 monoclonal HRP (horseradish peroxidase) conjugate (Amersham Pharmacia Biotech, USA) diluted in PBS/1% BSA was then added to the plates followed by an incubation for 1 h 37° C. Plates were washed and the ABTS (2,2′-azino-bis(3-ethylbenzothiazoline-6-sulfonic acid) single solution (Zymed, San Francisco, Calif., USA) was added. The OD 405 nm readings were measured using Opsys MR Microplate Reader (DYNEX Technologies, Inc., Chantilly, Va., USA). An identical ELISA procedure was performed using Flemish (containing an A to G substitution at aa21; i.e. A21G) and Dutch (containing an E to Q substitution at aa22; E22Q) mutant Aβ42 (SynPep Corp., CA, USA).

Dutch (E22Q) mutant Aβ42 = biological target: T4, Dutch (E22Q) mutant Aβ42 (Homo sapiens, UniProt P05067, E693Q); assay: ELISA binding of phage-displayed scFv to Dutch mutant Aβ42; details: control wild type phage M13
T4 construct: mutant Aβ42 (SynPep Corp., CA, USA); purchased SynPep Corp
Experimental: as §1

Aβ1-28 = Aβ1-28 (Homo sapiens, UniProt P05067); assay: ELISA binding of phage-displayed scFv to Aβ1-28; details: control wild type phage M13
[7] = plates coated with peptide 10 μg/ml
[8] = peptide in cyclic form, 40 μM with Aβ42 40 μM, 72 h
[9] = peptide in linear form, 40 μM with Aβ42 40 μM, 72 h

Molecule: CC[C@H](C)C(=O)O[C@H]1C[C@@H](C)C=C2C=C[C@H](C)[C@H](CC[C@@H]3C[C@@H](O)CC(=O)O3)[C@H]21 [lovastatin]
- intracellular and extracellular levels of Aβ [1]: reduce

Molecule: ASVRGWYVRSVFDPA [N44]
- effect of peptide alone on basal MTT reducing capacity [2]: Neither N44 nor C44 (either the linear or cyclic forms) alone altered basal MTT reducing capacity

Molecule: Aβ42: human amyloid-beta peptide, pre-aggregated, used as neurotoxic insult [reference compound]
- decrease in mitochondrial activity ([3]; Aβ42 40 μM alone, 72 h): 24.3%

Molecule: CADWRYRSVFGPVSVAC (disulfide 1-17 (inferred)) [Scr44, reference compound]
- OD405, binding of biotinylated Aβ42 to coated peptide (Aβ42 [4]; peptide in cyclic form, negative control): 0.25±0.03
- binding to Aβ42 in ELISA (Aβ42 [4]; [7]): did not bind

Molecule: CASVRGWYVRSVFDPAC (cyclic or linear) [C44]
- binding to Aβ42 in ELISA (Aβ42 [4]; cyclic peptide, S—S bond reduced with β-mercaptoethanol): abolished completely
- binding to Aβ42 in ELISA (Aβ42 [4]; linear form after spontaneous air oxidation, overnight agitation): restored
- binding to Aβ42 in ELISA (Aβ42 [4]; peptide in cyclic form): recognized
- binding to Aβ42 in ELISA (Aβ42 [4]; peptide in its linear form): weak recognition
- inhibition of binding of Aβ42 to immobilized cyclic C44 (Aβ42 [5]): inhibited, in a dose dependent manner
- effect of peptide alone on basal MTT reducing capacity ([3]; peptide alone, without Aβ42): Neither N44 nor C44 (either the linear or cyclic forms) alone altered basal MTT reducing capacity
- neuroprotective effect ([3]; peptide in cyclic form): 53.6%
- decrease in mitochondrial activity when co-incubated with Aβ42 [3, 8]: 11.9%
- protection against Aβ42 neurotoxicity [3, 8]: showed protection
- neuroprotective effect ([3]; peptide in linear form): 69.3%
- prevention of Aβ42 neurotoxicity [3, 9]: significantly prevented
- reduction in mitochondrial activity when co-incubated with Aβ42 [3, 9]: 7.7%

Molecule: IWGCSGKLICTTAVP (not fully specified (bridges); also: cyclic, ring type not given here) [GM15, reference compound]
- binding to Aβ42 in ELISA (Aβ42 [4]; [7]): did not bind

B1: b4.6: phage-displayed human anti-Aβ42 scFv, SEQ ID NO:12, HCDR3 SHYWDS (protein)
scFv: QVQLQESGPGLVKPSETLSLTCSVSGGSVSSGNYYWTWIRQPPGKGLEWIGYIYSSGSTSYNPSLMSRVTISLDMSKNQFSLRLTSVTAADTAVYYCARSHYWDSWSPGTLVTVSSGGGGSGGGGSGGGGSDIVMTQSPSSMSASVGDTVTIACRASRDIRNDLAWYQQKPGKAPKLLIYAASRLQSGVPSRFSGSGSFTDFTLTIQLCLQPDDFATYYCLQDSDYPLTFGGGTKLEIKR
- binding to wild type Aβ42 in ELISA (human Aβ42 (wild-type)): bound
- binding to Flemish mutant Aβ42 in ELISA [6]: bound
- binding to Dutch mutant Aβ42 in ELISA (Dutch (E22Q) mutant Aβ42): not statistically different from control phage M13
- binding to Aβ1-28 in ELISA (Aβ1-28): not statistically different from control phage M13
